Values belong to the substance of their own block, whether it stands above or below them.
Legend:
[1] = target: D3H44 Fab heavy chain S186K, ABD2-His6 tagged; assay: LCCA, SPR of light chain tags; L1:L2 DNA 1:9 normalized to 1:1; competing light chain m16
[2] = target: D3H44 Fab heavy chain Q179R, ABD2-His6 tagged; assay: as above
[3] = target: D3H44 Fab heavy chain S186R, ABD2-His6 tagged; assay: as above
[4] = target: D3H44 Fab heavy chain Q179K, ABD2-His6 tagged; assay: as above
[5] = target: D3H44 Fab heavy chain L143E_K145T_Q179E, ABD2-His6 tagged; assay: as above
[6] = target: D3H44 Fab heavy chain S186K, ABD2-His6 tagged; assay: LCCA, SPR of light chain tags; L1:L2 DNA 1:3 normalized to 1:1; competing light chain m16
[7] = target: D3H44 Fab heavy chain Q179R, ABD2-His6 tagged; assay: as above
[8] = target: D3H44 Fab heavy chain S186R, ABD2-His6 tagged; assay: as above
[9] = target: D3H44 Fab heavy chain Q179K, ABD2-His6 tagged; assay: as above
[10] = target: D3H44 Fab heavy chain L143E_K145T_Q179E, ABD2-His6 tagged; assay: as above
[11] = target: D3H44 Fab heavy chain Q179R, ABD2-His6 tagged; assay: LCCA, SPR of light chain tags; L1:L2 DNA 1:3 normalized to 1:1; competing light chain m22
[12] = target: D3H44 Fab heavy chain Q179K, ABD2-His6 tagged; assay: as above
[13] = target: D3H44 Fab heavy chain L143E_K145T_Q179E, ABD2-His6 tagged; assay: as above
[14] = target: D3H44 Fab heavy chain S186K, ABD2-His6 tagged; assay: LCCA, SPR of light chain tags; L1:L2 DNA 1:9 normalized to 1:1; competing light chain m24
[15] = target: D3H44 Fab heavy chain L143E_K145T_Q179E, ABD2-His6 tagged; assay: as above
[16] = target: D3H44 Fab heavy chain L143R, ABD2-His6 tagged; assay: LCCA, SPR of light chain tags; L1:L2 DNA 1:3 normalized to 1:1; competing light chain m20
[17] = target: D3H44 Fab heavy chain L143E_K145T_Q179E, ABD2-His6 tagged; assay: as above
[18] = target: D3H44 Fab heavy chain Q179K, ABD2-His6 tagged; assay: LCCA, SPR of light chain tags; L1:L2 DNA 1:9 normalized to 1:1; competing light chain m22
[19] = target: D3H44 Fab heavy chain L143E_K145T_Q179E, ABD2-His6 tagged; assay: as above
[20] = target: D3H44 Fab heavy chain S186K, ABD2-His6 tagged; assay: LCCA, SPR of light chain tags; L1:L2 DNA 1:9 normalized to 1:1; competing light chain m21
[21] = target: D3H44 Fab heavy chain Q179R, ABD2-His6 tagged; assay: as above
[22] = target: D3H44 Fab heavy chain L143E_K145T_Q179E, ABD2-His6 tagged; assay: as above
[23] = target: D3H44 Fab heavy chain L143R, ABD2-His6 tagged; assay: LCCA, SPR of light chain tags; L1:L2 DNA 1:9 normalized to 1:1; competing light chain m20
[24] = target: D3H44 Fab heavy chain L143E_K145T_Q179E, ABD2-His6 tagged; assay: as above
[25] = target: D3H44 Fab heavy chain S186K, ABD2-His6 tagged; assay: LCCA, SPR of light chain tags; L1:L2 DNA 1:9 normalized to 1:1; competing light chain m17
[26] = target: D3H44 Fab heavy chain Q179R, ABD2-His6 tagged; assay: as above
[27] = target: D3H44 Fab heavy chain S186R, ABD2-His6 tagged; assay: as above
[28] = target: D3H44 Fab heavy chain Q179K, ABD2-His6 tagged; assay: as above
[29] = target: D3H44 Fab heavy chain L143E_K145T_Q179E, ABD2-His6 tagged; assay: as above
[30] = target: D3H44 Fab heavy chain S186K, ABD2-His6 tagged; assay: LCCA, SPR of light chain tags; L1:L2 DNA 1:3 normalized to 1:1; competing light chain m21
[31] = target: D3H44 Fab heavy chain Q179R, ABD2-His6 tagged; assay: as above
[32] = target: D3H44 Fab heavy chain L143E_K145T_Q179E, ABD2-His6 tagged; assay: as above
[33] = target: D3H44 Fab heavy chain S186K, ABD2-His6 tagged; assay: LCCA, SPR of light chain tags; L1:L2 DNA 1:3 normalized to 1:1; competing light chain m24
[34] = target: D3H44 Fab heavy chain L143E_K145T_Q179E, ABD2-His6 tagged; assay: as above
[35] = target: D3H44 Fab heavy chain S186R, ABD2-His6 tagged; assay: LCCA, SPR of light chain tags; L1:L2 DNA 1:3 normalized to 1:1; competing light chain m19
[36] = target: D3H44 Fab heavy chain L143E_K145T_Q179E, ABD2-His6 tagged; assay: as above
[37] = target: D3H44 Fab heavy chain S186K, ABD2-His6 tagged; assay: LCCA, SPR of light chain tags; L1:L2 DNA 1:3 normalized to 1:1; competing light chain m17
[38] = target: D3H44 Fab heavy chain Q179R, ABD2-His6 tagged; assay: as above
[39] = target: D3H44 Fab heavy chain S186R, ABD2-His6 tagged; assay: as above
[40] = target: D3H44 Fab heavy chain Q179K, ABD2-His6 tagged; assay: as above
[41] = target: D3H44 Fab heavy chain L143E_K145T_Q179E, ABD2-His6 tagged; assay: as above
[42] = target: D3H44 Fab heavy chain S186K, ABD2-His6 tagged; assay: LCCA, SPR of light chain tags; L1:L2 DNA 1:9 normalized to 1:1; competing light chain m18
[43] = target: D3H44 Fab heavy chain L143E_K145T_Q179D, ABD2-His6 tagged; assay: as above
[44] = target: D3H44 Fab heavy chain S186K, ABD2-His6 tagged; assay: LCCA, SPR of light chain tags; L1:L2 DNA 1:3 normalized to 1:1; competing light chain m18
[45] = target: D3H44 Fab heavy chain S186R, ABD2-His6 tagged; assay: as above
[46] = target: D3H44 Fab heavy chain L143E_K145T_Q179D, ABD2-His6 tagged; assay: as above
[47] = target: D3H44 Fab heavy chain S186K, ABD2-His6 tagged; assay: LCCA, SPR of light chain tags; L1:L2 DNA 1:3 normalized to 1:1; competing light chain m23
[48] = target: D3H44 Fab heavy chain S186R, ABD2-His6 tagged; assay: as above
[49] = target: D3H44 Fab heavy chain L143E_K145T_Q179D, ABD2-His6 tagged; assay: as above
[50] = target: D3H44 Fab heavy chain L143E_K145T_Q179E, ABD2-His6 tagged; assay: as above
[51] = target: D3H44 Fab heavy chain L143R, ABD2-His6 tagged; assay: LCCA, SPR of light chain tags; L1:L2 DNA 1:9 normalized to 1:1; competing light chain m16
[52] = target: D3H44 Fab heavy chain L143R, ABD2-His6 tagged; assay: LCCA, SPR of light chain tags; L1:L2 DNA 1:3 normalized to 1:1; competing light chain m16

H2L2:H2L1 normalized median ratio [1]: 90%
H2L2:H2L1 normalized median ratio [2]: 86%
H2L2:H2L1 normalized median ratio [3]: 87%
H2L2:H2L1 normalized median ratio [4]: 84%
H1L1:H1L2 normalized median ratio [5]: 10%
H2L2:H2L1 normalized median ratio [6]: 98%
H2L2:H2L1 normalized median ratio [7]: 95%
H2L2:H2L1 normalized median ratio [8]: 94%
H2L2:H2L1 normalized median ratio [9]: 95%
H1L1:H1L2 normalized median ratio [10]: 9%
Substance: D3H44 light chain Q124E_Q160E_T178E, HA or FLAG tagged

H2L2:H2L1 normalized median ratio [11]: 3%
H2L2:H2L1 normalized median ratio [12]: 4%
H1L1:H1L2 normalized median ratio [13]: 86%
H1L1:H1L2 normalized median scalar value ln(r1/f1) [13]: 1.83
H2L2:H2L1 normalized median ratio [14]: 6%
H1L1:H1L2 normalized median ratio [15]: 78%
H1L1:H1L2 normalized median scalar value ln(r1/f1) [15]: 1.29
H2L2:H2L1 normalized median ratio [16]: 5%
H1L1:H1L2 normalized median ratio [17]: 93%
H1L1:H1L2 normalized median scalar value ln(r1/f1) [17]: 2.62
H2L2:H2L1 normalized median ratio [18]: 11%
H1L1:H1L2 normalized median ratio [19]: 85%
H1L1:H1L2 normalized median scalar value ln(r1/f1) [19]: 1.77
H2L2:H2L1 normalized median ratio [20]: 11%
H2L2:H2L1 normalized median ratio [21]: 10%
H1L1:H1L2 normalized median ratio [22]: 92%
H1L1:H1L2 normalized median scalar value ln(r1/f1) [22]: 2.45
H2L2:H2L1 normalized median ratio [23]: 11%
H1L1:H1L2 normalized median ratio [24]: 92%
H1L1:H1L2 normalized median scalar value ln(r1/f1) [24]: 2.45
H2L2:H2L1 normalized median ratio [25]: 10%
H2L2:H2L1 normalized median ratio [26]: 14%
H2L2:H2L1 normalized median ratio [27]: 13%
H2L2:H2L1 normalized median ratio [28]: 16%
H1L1:H1L2 normalized median ratio [29]: 90%
H1L1:H1L2 normalized median scalar value ln(r1/f1) [29]: 2.18
H2L2:H2L1 normalized median ratio [30]: 5%
H2L2:H2L1 normalized median ratio [31]: 6%
H1L1:H1L2 normalized median ratio [32]: 92%
H1L1:H1L2 normalized median scalar value ln(r1/f1) [32]: 2.46
H2L2:H2L1 normalized median ratio [33]: 6%
H1L1:H1L2 normalized median ratio [34]: 91%
H1L1:H1L2 normalized median scalar value ln(r1/f1) [34]: 2.27
H2L2:H2L1 normalized median ratio [35]: 4%
H1L1:H1L2 normalized median ratio [36]: 85%
H1L1:H1L2 normalized median scalar value ln(r1/f1) [36]: 1.75
H2L2:H2L1 normalized median ratio [37]: 2%
H2L2:H2L1 normalized median ratio [38]: 5%
H2L2:H2L1 normalized median ratio [39]: 6%
H2L2:H2L1 normalized median ratio [40]: 5%
H1L1:H1L2 normalized median ratio [41]: 91%
H1L1:H1L2 normalized median scalar value ln(r1/f1) [41]: 2.29
Substance: D3H44 light chain Q124R_T178R, HA or FLAG tagged

H2L2:H2L1 normalized median ratio [42]: 95%
H1L1:H1L2 normalized median ratio [43]: 11%
H2L2:H2L1 normalized median ratio [44]: 98%
H2L2:H2L1 normalized median ratio [45]: 97%
H1L1:H1L2 normalized median ratio [46]: 15%
H2L2:H2L1 normalized median ratio [8]: 96%
H1L1:H1L2 normalized median ratio [10]: 15%
H2L2:H2L1 normalized median ratio [47]: 97%
H2L2:H2L1 normalized median ratio [48]: 97%
H1L1:H1L2 normalized median ratio [49]: 16%
H1L1:H1L2 normalized median ratio [50]: 16%
Substance: D3H44 light chain Q124E_T180E, HA or FLAG tagged

H2L2:H2L1 normalized median ratio [51]: 89%
H1L1:H1L2 normalized median ratio [5]: 8%
H2L2:H2L1 normalized median ratio [52]: 95%
H1L1:H1L2 normalized median ratio [10]: 7%
Substance: D3H44 light chain Q124E_V133E, HA or FLAG tagged

Source: patent US11306156
